Tested on: NanoLuc-PEST reporter in HEK293 cells
Experiment: Transcriptional regulation assay (split transcription factor), NanoLuc-PEST reporter
Assay type: cell-based, human
Text: The iDimerize regulated transcription system (Takara) was used to test the ability of PRSIM-based CIDs to regulate gene expression. […] The DBD and AD are separately fused to the two protein components of a CID such that, only in the presence of the small molecule inducer, the AD is brought into close proximity to the DBD, recruiting the transcription machinery to a promoter harbouring the DBD recognition sites. The iDimerize regulated transcription system (Takara) provides two vectors, pHet-Act1-2 and pZFHD1-Luciferase. […]
All transcriptional regulation assays were performed in adherent HEK293 cells cultured in 384-well plates. Cells enzymatically dissociated from a tissue culture flask were counted and plated at 7.5×10^3 cells/well in a 384-well plate. […] On day 3, wells were treated with different concentrations of either A/C heterodimeriser (for the FRB:FKBP12 control), simeprevir or with vehicle control, and 24 hours later luminescence was quantified with an Envision plate reader immediately following addition of SteadyGlo luciferase substrate (Promega) or Nano-Glo Vivazine luciferase substrate (Promega). Alternatively, reverse transfections were carried out on Day 1, addition of dimeriser on Day 2 and luminescence quantified 24 hours later on Day 3. […]

B1: PRSIM_23: Tn3 protein specific for HCV NS3/4A PR (S139A):simeprevir complex, SEQ ID NO: 5 (protein)
chain: RLDAPSQIEVKDVTDTTALITWVDPRYDDIWWFELTYGIKDVPGDRTTIKLYLNDPYYSIGNLKPDTEYEVSLISYTGDSYSRSGSNPAKITFKTGL
modifications: PRSIM_23
One copy of the DBD fusion partner
  fold change of NanoLuc-PEST expression: 55 fold
Three copies of the DBD fusion partner
  fold change of NanoLuc-PEST expression: 100 fold
